Assay results reported in article PMC11198818, “Positive charges promote the recognition of proteins by the chaperone SlyD from Escherichia coli” (PLOS ONE, 2024).
Changes are numbered by the printed parent chain.

Experiments:
Assay in all cases: ITC; VP-ITC (MicroCal), 30°C, 10 mM potassium phosphate buffer pH 7.6 or 7.8; SlyD or its variant 30 uM in the calorimetric cell, HiPIP precursor (RR-HiPIP) injected: 100 uM, 2x 22 injections of 10 uL (Fig 4); 200 uM, 23 injections of 10 uL (Fig 3)
Details in all cases: both partners purified
[1] = target: T1, SlyD E113A, C-terminally hexahistidine-tagged (E. coli, UniProt P0A9K9 1-196, E113A)
T1 construct: FKBP-type peptidyl-prolyl cis-trans isomerase SlyD, E. coli; the tag is fused to the C-terminal domain; not shown: His6, C-terminal, kept
T1 sequence: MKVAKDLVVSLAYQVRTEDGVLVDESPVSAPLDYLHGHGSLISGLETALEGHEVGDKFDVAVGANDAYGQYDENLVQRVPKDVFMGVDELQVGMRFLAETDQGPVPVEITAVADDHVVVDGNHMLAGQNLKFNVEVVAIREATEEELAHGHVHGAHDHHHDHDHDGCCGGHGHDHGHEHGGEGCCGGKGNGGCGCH

[2] = target: T2, SlyD F96A, C-terminally hexahistidine-tagged (E. coli, UniProt P0A9K9 1-196, F96A)
T2 construct: FKBP-type peptidyl-prolyl cis-trans isomerase SlyD, E. coli; the tag is fused to the C-terminal domain; not shown: His6, C-terminal, kept
T2 sequence: T1 sequence with F96A, A113E

[3] = target: T3, SlyD F84N, C-terminally hexahistidine-tagged (E. coli, UniProt P0A9K9 1-196, F84N)
T3 construct: FKBP-type peptidyl-prolyl cis-trans isomerase SlyD, E. coli; the tag is fused to the C-terminal domain; not shown: His6, C-terminal, kept
T3 sequence: T1 sequence with F84N, A113E

[4] = target: T4, SlyD D101A, C-terminally hexahistidine-tagged (E. coli, UniProt P0A9K9 1-196, D101A)
T4 construct: FKBP-type peptidyl-prolyl cis-trans isomerase SlyD, E. coli; the tag is fused to the C-terminal domain; not shown: His6, C-terminal, kept
T4 sequence: T1 sequence with D101A, A113E

[5] = target: T5, SlyD E89A, C-terminally hexahistidine-tagged (E. coli, UniProt P0A9K9 1-196, E89A)
T5 construct: FKBP-type peptidyl-prolyl cis-trans isomerase SlyD, E. coli; the tag is fused to the C-terminal domain; not shown: His6, C-terminal, kept
T5 sequence: T1 sequence with E89A, A113E

[6] = target: T6, SlyD F84A, C-terminally hexahistidine-tagged (E. coli, UniProt P0A9K9 1-196, F84A)
T6 construct: FKBP-type peptidyl-prolyl cis-trans isomerase SlyD, E. coli; the tag is fused to the C-terminal domain; not shown: His6, C-terminal, kept
T6 sequence: T1 sequence with F84A, A113E

[7] = target: T7, SlyD F96G, C-terminally hexahistidine-tagged (E. coli, UniProt P0A9K9 1-196, F96G)
T7 construct: FKBP-type peptidyl-prolyl cis-trans isomerase SlyD, E. coli; the tag is fused to the C-terminal domain; not shown: His6, C-terminal, kept
T7 sequence: T1 sequence with F96G, A113E

B1: HiPIP precursor (RR-HiPIP) from Allochromatium vinosum (natural protein)
chain: MSDKPISKSRRDAVKVMLGTAAAIPMINLVGFGTARASAPANAVAADDATAIALKYNQDATKSERVAAARPGLPPEEQHCANCQFMQADAAGATDEWKGCQLFPGKLINVNGWCASWTLKAG
modifications: HiPIP precursor; fully folded, [4Fe-4S] cluster presumed; signal peptide retained
For B1, the Kd [1] was 0.49 ± 0.07 µM, the “stoichiometry N” value [1] was 0.616 ± 0.008 and the Kd [2] was 4.88 ± 0.54 µM. The “stoichiometry N” value [2] was 0.66 ± 0.013, the Kd [3] was 6.62 ± 0.2 µM and the “stoichiometry N” value [3] was 0.532 ± 0.004. The “stoichiometry N” value [4] was 0.604 ± 0.012, the Kd [5] was 0.38 ± 0.04 µM and the “stoichiometry N” value [5] was 0.404 ± 0.004. The “stoichiometry N” value [6] was 0.766 ± 0.011, the Kd [7] was 5.65 ± 0.3 µM and the “stoichiometry N” value [7] was 0.575 ± 0.007.
